Measurements as given in patent publication US20220010284A1 (TRUSTEES OF PRINCETON UNIVERSITY, published 2022).

Tests used:
[1] = test system: Gp59 (cI repressor, phage VP882) (Vibrio phage VP882); assay: cell_activity; details: Pq-lux in E. coli, arabinose induced; direct binding inferred
[2] = target: T1, lambda HALO-cI (HIS-HALO-cIlambda) (phage lambda, UniProt P03034 2-237); assay: confocal microscopy of HALO-cI localization in E. coli with induced orf584
T1 construct: also called lambda cI; lambda repressor; not shown: N-terminal HIS-HALO tag and linker from vector pH6HTN
T1 sequence: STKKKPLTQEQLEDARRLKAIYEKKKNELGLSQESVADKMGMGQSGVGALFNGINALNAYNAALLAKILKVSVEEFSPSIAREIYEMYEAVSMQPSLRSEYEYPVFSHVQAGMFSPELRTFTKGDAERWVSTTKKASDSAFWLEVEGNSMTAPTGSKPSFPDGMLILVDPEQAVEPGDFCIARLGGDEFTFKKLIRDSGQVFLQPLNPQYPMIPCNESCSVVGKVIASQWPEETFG

[3] = target: T1, lambda HALO-cI (HIS-HALO-cIlambda); assay: confocal microscopy of HALO-cI localization in E. coli co-expressing Qtip

Question: Which activity (fold repression) [1] does the source give for Pq (q/gp62 promoter) here?
Answer: 140

B1: ORF584 (Qtip-like protein of phage MJ1) (other)
chain: MDLRVSNAKDLLDKFEEKAVQMESISQLLANAPEDLTLATVQGSLSALASIARDAGEAADRLRTISSAEG
notes: also called phage MJ1 orf584; pTetA-orf584
Question: Does B1 bind [2]?
Answer: no binding

B2: Qtip (Gp55 of phage VP882, quorum triggered inactivator of cI protein) (other)
chain: MCDFCSEHIDSLDALQSSLEKGTAIIELLDTALSAGIEVSPRVVSCALSAAHQHLQVSEKINRSLQIGCGSKEVLRLVD
notes: also called phage VP882 Qtip; pTetA-qtip
Question: Does B2 bind [3]?
Answer: no binding
